Measured values from paper PMC2175353.
Like-named read-outs stand apart in the source and are kept apart here.

Key:
[1] = biological target: T1, v-Myb AMV (bacterial, pVM2028) (avian myeloblastosis virus (AMV), UniProt P01104 1-382); assay: EMSA
[2] = biological target: T1, v-Myb AMV (bacterial, pVM2028); assay: EMSA; remark: listed apart in the source

T1 sequence (P01104 whole entry): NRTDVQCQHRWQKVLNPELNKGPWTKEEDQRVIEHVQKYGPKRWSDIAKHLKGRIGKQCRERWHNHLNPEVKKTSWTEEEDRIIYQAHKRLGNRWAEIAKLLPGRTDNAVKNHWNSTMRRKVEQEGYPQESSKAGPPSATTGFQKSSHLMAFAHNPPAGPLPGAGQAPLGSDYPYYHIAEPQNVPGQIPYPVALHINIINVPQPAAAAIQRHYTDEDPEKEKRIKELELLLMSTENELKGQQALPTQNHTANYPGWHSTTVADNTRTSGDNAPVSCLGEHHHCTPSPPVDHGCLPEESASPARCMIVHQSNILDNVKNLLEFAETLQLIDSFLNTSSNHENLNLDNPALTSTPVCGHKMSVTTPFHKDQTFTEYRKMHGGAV

B1: MBS3wt (Myb site 3, lysozyme -2.7 kb enhancer) (dsDNA)
DNA 1: GGCTGGGAATATTTCTGTTTGACCACCATGGAG
DNA 2: CTCCATGGTGGTCAAACAGAAATATTCCCAGCC
Does B1 bind [1]?
Result: no binding

B2: mimA (mim-1 promoter Myb site A) (dsDNA)
DNA 1: GCTCTAAAAAACCGTTATAATGTACAGATATCTT
DNA 2: AAGATATCTGTACATTATAACGGTTTTTTAGAGC
Does B2 bind [2]?
Result: binds
